Data taken from US20190185537A1 (AstraZeneca / MedImmune, published 2019).
“And” between values parts separate entries of the source, which are not always exact repeats. Identical values can stand only once. Numbered stars: 1 amine (or outer) side, 2 acyl side, 3 side chain; on linkers, the order of the positions; unused ones are H or OH. Side chains are listed from the residue outwards. Ends that are not written are not given here. * marks the point of attachment. γGlu = O=C(O)[C@H](CCC(=O)[*:2])N[*:1]; Palmitoyl = CCCCCCCCCCCCCCCC(=O)*

T1: human glucose-dependent insulinotropic peptide (gastric inhibitory polypeptide) receptor (human) (UniProt P48546)
T1 sequence (looked up): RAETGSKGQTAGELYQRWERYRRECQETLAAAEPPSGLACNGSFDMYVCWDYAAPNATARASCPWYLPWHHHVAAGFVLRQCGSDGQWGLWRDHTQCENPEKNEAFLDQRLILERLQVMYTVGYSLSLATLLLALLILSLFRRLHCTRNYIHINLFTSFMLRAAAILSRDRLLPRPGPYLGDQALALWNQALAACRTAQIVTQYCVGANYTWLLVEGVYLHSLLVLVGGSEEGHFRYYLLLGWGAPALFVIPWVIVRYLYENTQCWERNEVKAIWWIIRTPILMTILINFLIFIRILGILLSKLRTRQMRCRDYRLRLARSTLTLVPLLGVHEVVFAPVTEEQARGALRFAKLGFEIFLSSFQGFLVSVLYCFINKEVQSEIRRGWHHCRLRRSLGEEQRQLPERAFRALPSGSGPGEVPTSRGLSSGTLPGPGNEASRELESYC

B1: g639 (peptide)
peptide: HSEGTFTSDYSKYLDSK([γGlu-Palmitoyl])RAEDFVEWLVAGG-NH2
modifications: N-terminus assumed
SMILES: CCCCCCCCCCCCCCCC(=O)N[C@@H](CCC(=O)NCCCC[C@H](NC(=O)[C@H](CO)NC(=O)[C@H](CC(=O)O)NC(=O)[C@H](CC(C)C)NC(=O)[C@H](Cc1ccc(O)cc1)NC(=O)[C@H](CCCCN)NC(=O)[C@H](CO)NC(=O)[C@H](Cc1ccc(O)cc1)NC(=O)[C@H](CC(=O)O)NC(=O)[C@H](CO)NC(=O)[C@@H](NC(=O)[C@H](Cc1ccccc1)NC(=O)[C@@H](NC(=O)CNC(=O)[C@H](CCC(=O)O)NC(=O)[C@H](CO)NC(=O)[C@@H](N)Cc1c[nH]cn1)[C@@H](C)O)[C@@H](C)O)C(=O)N[C@@H](CCCNC(=N)N)C(=O)N[C@@H](C)C(=O)N[C@@H](CCC(=O)O)C(=O)N[C@@H](CC(=O)O)C(=O)N[C@@H](Cc1ccccc1)C(=O)N[C@H](C(=O)N[C@@H](CCC(=O)O)C(=O)N[C@@H](Cc1c[nH]c2ccccc12)C(=O)N[C@@H](CC(C)C)C(=O)N[C@H](C(=O)N[C@@H](C)C(=O)NCC(=O)NCC(N)=O)C(C)C)C(C)C)C(=O)O
B2: g600 (peptide)
peptide: HSQGTFTSDYSKYLDSK([γGlu-Palmitoyl])RAQDFVEWLVAGG-NH2
modifications: N-terminus assumed
SMILES: CCCCCCCCCCCCCCCC(=O)N[C@@H](CCC(=O)NCCCC[C@H](NC(=O)[C@H](CO)NC(=O)[C@H](CC(=O)O)NC(=O)[C@H](CC(C)C)NC(=O)[C@H](Cc1ccc(O)cc1)NC(=O)[C@H](CCCCN)NC(=O)[C@H](CO)NC(=O)[C@H](Cc1ccc(O)cc1)NC(=O)[C@H](CC(=O)O)NC(=O)[C@H](CO)NC(=O)[C@@H](NC(=O)[C@H](Cc1ccccc1)NC(=O)[C@@H](NC(=O)CNC(=O)[C@H](CCC(N)=O)NC(=O)[C@H](CO)NC(=O)[C@@H](N)Cc1c[nH]cn1)[C@@H](C)O)[C@@H](C)O)C(=O)N[C@@H](CCCNC(=N)N)C(=O)N[C@@H](C)C(=O)N[C@@H](CCC(N)=O)C(=O)N[C@@H](CC(=O)O)C(=O)N[C@@H](Cc1ccccc1)C(=O)N[C@H](C(=O)N[C@@H](CCC(=O)O)C(=O)N[C@@H](Cc1c[nH]c2ccccc12)C(=O)N[C@@H](CC(C)C)C(=O)N[C@H](C(=O)N[C@@H](C)C(=O)NCC(=O)NCC(N)=O)C(C)C)C(C)C)C(=O)O
B3: g680 (peptide)
peptide: HGQGTFTSDYSKYLDSK([γGlu-Palmitoyl])RAEDFVEWLVAGG-NH2
modifications: N-terminus assumed
SMILES: CCCCCCCCCCCCCCCC(=O)N[C@@H](CCC(=O)NCCCC[C@H](NC(=O)[C@H](CO)NC(=O)[C@H](CC(=O)O)NC(=O)[C@H](CC(C)C)NC(=O)[C@H](Cc1ccc(O)cc1)NC(=O)[C@H](CCCCN)NC(=O)[C@H](CO)NC(=O)[C@H](Cc1ccc(O)cc1)NC(=O)[C@H](CC(=O)O)NC(=O)[C@H](CO)NC(=O)[C@@H](NC(=O)[C@H](Cc1ccccc1)NC(=O)[C@@H](NC(=O)CNC(=O)[C@H](CCC(N)=O)NC(=O)CNC(=O)[C@@H](N)Cc1c[nH]cn1)[C@@H](C)O)[C@@H](C)O)C(=O)N[C@@H](CCCNC(=N)N)C(=O)N[C@@H](C)C(=O)N[C@@H](CCC(=O)O)C(=O)N[C@@H](CC(=O)O)C(=O)N[C@@H](Cc1ccccc1)C(=O)N[C@H](C(=O)N[C@@H](CCC(=O)O)C(=O)N[C@@H](Cc1c[nH]c2ccccc12)C(=O)N[C@@H](CC(C)C)C(=O)N[C@H](C(=O)N[C@@H](C)C(=O)NCC(=O)NCC(N)=O)C(C)C)C(C)C)C(=O)O

biological target: human glucagon receptor (human, UniProt P47871 26-477); experiment: cell-based or functional assay
Sequence (P47871 26-477): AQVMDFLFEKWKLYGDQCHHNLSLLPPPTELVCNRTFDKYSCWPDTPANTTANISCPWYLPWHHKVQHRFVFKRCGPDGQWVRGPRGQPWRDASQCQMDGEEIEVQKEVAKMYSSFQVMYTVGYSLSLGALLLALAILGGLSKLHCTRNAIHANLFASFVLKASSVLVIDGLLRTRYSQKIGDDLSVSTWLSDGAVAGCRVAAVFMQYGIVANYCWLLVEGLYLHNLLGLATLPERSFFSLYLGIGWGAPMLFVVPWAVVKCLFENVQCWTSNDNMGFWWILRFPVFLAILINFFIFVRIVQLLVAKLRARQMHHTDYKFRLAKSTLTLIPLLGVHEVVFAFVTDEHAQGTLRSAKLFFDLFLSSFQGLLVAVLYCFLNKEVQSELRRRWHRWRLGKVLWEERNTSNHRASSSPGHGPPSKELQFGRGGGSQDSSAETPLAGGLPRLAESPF

cAMP EC50 (assay 1) [nM]	Binder
82.1	B1
0.00547	B2
3.68	B3

biological target: T1, human glucose-dependent insulinotropic peptide (gastric inhibitory polypeptide) receptor (human); experiment: cell-based or functional assay

cAMP EC50 (assay 1)	Binder
82.1 nM	B1
82.8 nM and 124 nM	B2
96.7 nM	B3

biological target: human GLP-1 receptor (human, UniProt P43220 24-463); experiment: cell-based or functional assay
Sequence (P43220 24-463): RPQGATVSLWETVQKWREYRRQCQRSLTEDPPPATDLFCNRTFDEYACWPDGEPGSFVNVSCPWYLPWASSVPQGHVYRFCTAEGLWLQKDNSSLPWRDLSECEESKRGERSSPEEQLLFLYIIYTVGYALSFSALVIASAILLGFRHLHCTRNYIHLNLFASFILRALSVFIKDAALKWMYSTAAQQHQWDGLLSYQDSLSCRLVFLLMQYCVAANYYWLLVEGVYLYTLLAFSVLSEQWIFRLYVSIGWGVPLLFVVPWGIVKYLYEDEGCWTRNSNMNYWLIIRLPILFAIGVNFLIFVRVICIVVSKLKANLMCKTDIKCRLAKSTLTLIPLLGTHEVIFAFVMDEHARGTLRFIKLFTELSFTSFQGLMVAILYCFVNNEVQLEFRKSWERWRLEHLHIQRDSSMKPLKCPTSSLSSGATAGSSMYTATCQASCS

cAMP EC50 (assay 1) [nM]	Binder
0.244	B1
0.0666	B2
0.195	B3
